Measured values as given in publication PMC3831237.

Tests used:
[1] = biological target: 2,5-DHP dioxygenase Hpo from Pseudomonas putida S16 (non-His6-tagged) (Pseudomonas putida S16); experiment: SEC + native gel or EMSA
purified protein = substrate: O=CNC(=O)/C=C/C(=O)O; experiment: purified protein; conditions: 20 mM sodium phosphate pH 6.7, 25 °C

Molecule | stoichiometry N [1] | Km (purified protein) [mM] | kcat (purified protein) [s⁻¹]
2,5-DHP dioxygenase Hpo from Pseudomonas putida S16 (non-His6-tagged) (enzyme) | 3 |  | 
Nfo (Pseudomonas putida S16) (protein) MKGYNVYANGIRQHIIHFPGTGSPLLLIPGITSPAVTWGFVAERLAKYFDVHVVDVRGRGLSESGDLDYSLDAMADDLVALAQRMEGVVVLGHSMGARIAIRAARKDSQVFSRLILVDPPVSGPGRRPYPAKWSWYAESIRLAQRGCTAMEMRSYCPTWTDEQIELRAEWLHTCQYTAVKTAFDGFHTDDIHTDLAQLTLPIQLVVAGGAEVIQPDDIAEIISLAPQTTTYVVEEAGHMIPWDNLEGFITAVSNR |  | 5.83 ± 0.46 | 2.4 ± 0.1
